From patent US20180230457A1 (published 2018)
Each block holds one binder with its values, some of them ahead of it.

Assays:
[1] = target: T1, bovine pancreatic RNase A (bovine, UniProt P61823 27-150); assay: ITC, 25 C, no metal
T1 construct: mature; Commercial purified protein; Used unmodified in ITC and as plate coat; biotinylated only for phage selection
T1 sequence (looked up): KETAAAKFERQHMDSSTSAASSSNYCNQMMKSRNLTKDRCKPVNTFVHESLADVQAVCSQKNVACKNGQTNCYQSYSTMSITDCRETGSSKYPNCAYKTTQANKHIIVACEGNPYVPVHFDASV
Method: (§1) ITC experiments were performed using a MicroCal VP-ITC (MicroCal, LLC, Northampton, Mass.). All experiments were performed at 25° C. Proteins were dialyzed against the desired experimental buffer, which included PBS (20 mM NaPhosphate, 150 mM NaCl pH 7.4), TBS (20 mM Tris-HCl, 150 mM NaCl pH 7.4) and TBS-E (20 mM Tris, 150 mM NaCl, 1 mM EDTA, pH 7.4). For direct titration of NiCl₂ into the VHH-metal variant, concentrations were 2 mM and 200 μM for NiCl2 and VHH, respectively. Based on the observed binding constant, this corresponds to a “c-value” of 6.7, which is within the commonly acceptable range for the accurate determination of binding thermodynamics. For competitive titrations, nickel was included in TBS without EDTA at concentrations ranging from 0-10 mM. Competitive VHH/RNase A titration experiments with a “c” value greater than 10 included protein concentrations ranging from 30 μM to 205 μM. Conditions included a 10-fold higher concentration of titrant (VHH). […] These experiments included using a 100-fold higher concentration of titrant (RNase A) relative to VHH. RNase A concentrations were between 150 μM and 800 μM. […] For nickel/VHH titrations, the titrant nickel was dissolved in the appropriate dialysis buffer at a 10× concentration of the VHH. Experiments typically included 27, 10 μL injections with a 240 second delay between each injection. Dilution titrations indicated the absence of significant heats of dilution, consequently, no background dilution heat subtractions were necessary. The binding parameters (K, ΔH°, ΔS°, and n) were determined using the single site binding model using the ITC add-in in Origin version 7 (MicroCal LLC).

[2] = target: T1, bovine pancreatic RNase A; assay: ITC, 25 C, RNase A binding with 1 mM nickel present
Method: (§2) The binding parameters (K, ΔH°, ΔS°, and n) were determined using the single site binding model using the ITC add-in in Origin version 7 (MicroCal LLC). All titrations indicated a 1:1 interaction with observed stoichiometries equal to 1.0 (within 5%).
(§3) ITC experiments were performed using a MicroCal VP-ITC (MicroCal, LLC, Northampton, Mass.). All experiments were performed at 25° C. Proteins were dialyzed against the desired experimental buffer, which included PBS (20 mM NaPhosphate, 150 mM NaCl pH 7.4), TBS (20 mM Tris-HCl, 150 mM NaCl pH 7.4) and TBS-E (20 mM Tris, 150 mM NaCl, 1 mM EDTA, pH 7.4). For direct titration of NiCl₂ into the VHHmetal variant, concentrations were 2 mM and 200 μM for NiCl₂ and VHH, respectively. Based on the observed binding constant, this corresponds to a “cvalue” of 6.7, which is within the commonly acceptable range for the accurate determination of binding thermodynamics (Tellinghuisen, 2008; Wiseman et al. 1989). For competitive titrations, nickel was included in TBS without EDTA at concentrations ranging from 0-10 mM. Competitive VHH/RNase A titration experiments with a “c” value greater than 10 included protein concentrations ranging from 30 μM to 205 μM. Conditions included a 10-fold higher concentration of titrant (VHH). […] These experiments included using a 100-fold higher concentration of titrant (RNase A) relative to VHH. RNase A concentrations were between 150 μM and 800 μM. Extinction coefficients were determined using values determined by the methods described by Pace, et. al. (1995). […] For nickel/VHH titrations, the titrant nickel was dissolved in the appropriate dialysis buffer at a 10× concentration of the VHH. Experiments typically included 27, 10 μL injections with a 240 second delay between each injection. Dilution titrations indicated the absence of significant heats of dilution, consequently, no background dilution heat subtractions were necessary. The binding parameters (K, ΔH°, ΔS°, and n) were determined using the single site binding model using the ITC add-in in Origin version 7 (MicroCal LLC).

[3] = target: T1, bovine pancreatic RNase A; assay: ITC, pH 6.5, imidazole
[4] = target: T1, bovine pancreatic RNase A; assay: ITC, pH 7.4
[5] = target: T1, bovine pancreatic RNase A; assay: ITC, pH 7, PBS
[6] = target: T1, bovine pancreatic RNase A; assay: ITC, pH profile 8.0 to 4.5
[7] = target: T1, bovine pancreatic RNase A; assay: ITC, pH 8, TRIS
[8] = target: T1, bovine pancreatic RNase A; assay: ITC, pH 6, PBS
[9] = target: T1, bovine pancreatic RNase A; assay: ITC, pH 4.5, piperazine
[10] = target: T1, bovine pancreatic RNase A; assay: ITC, pH 5, piperazine
[11] = target: T1, bovine pancreatic RNase A; assay: ITC, pH 5.5, acetate
[12] = target: T1, bovine pancreatic RNase A; assay: ITC, pH 7.4, against wild-type VHH
[13] = target: T1, bovine pancreatic RNase A; assay: ITC, pH 4.74, piperazine
[14] = target: T1, bovine pancreatic RNase A; assay: ITC, pH 7.4, PBS
[15] = target: T1, bovine pancreatic RNase A; assay: ITC, 25 C, pH 7.4, no metal
Method: as §1

[16] = target: T1, bovine pancreatic RNase A; assay: ITC, 25 C, RNase A binding with 10 mM nickel present
Method: as §2, §3

[17] = target: T1, bovine pancreatic RNase A; assay: competitive phage ELISA with and without 1 mM metals (Zn2+, Co2+, Ni2+)
[18] = target: T1, bovine pancreatic RNase A; assay: ITC, 25 C, RNase A binding with 100 µM nickel present
[19] = target: T1, bovine pancreatic RNase A; assay: ITC, 25 C, no metal, against wild-type VHH
Method: (§4) Isothermal titration calorimetry (ITC) was used to evaluate the thermodynamic basis for VHH-metal's dual function. […] As expected, titrations of nickel into wild-type anti-RNase A VHH produced no measurable binding.
(§5) ITC experiments were performed using a MicroCal VP-ITC (MicroCal, LLC, Northampton, Mass.). All experiments were performed at 25° C. Proteins were dialyzed against the desired experimental buffer, which included PBS (20 mM NaPhosphate, 150 mM NaCl pH 7.4), TBS (20 mM Tris-HCl, 150 mM NaCl pH 7.4) and TBS-E (20 mM Tris, 150 mM NaCl, 1 mM EDTA, pH 7.4). For direct titration of NiCl₂ into the VHH-metal variant, concentrations were 2 mM and 200 μM for NiCl2 and VHH, respectively. Based on the observed binding constant, this corresponds to a “c-value” of 6.7, which is within the commonly acceptable range for the accurate determination of binding thermodynamics. For competitive titrations, nickel was included in TBS without EDTA at concentrations ranging from 0-10 mM. Competitive VHH/RNase A titration experiments with a “c” value greater than 10 included protein concentrations ranging from 30 μM to 205 μM. Conditions included a 10-fold higher concentration of titrant (VHH).

[20] = target: T1, bovine pancreatic RNase A; assay: ITC, 25 C, RNase A binding with 1 µM nickel present
Method: as §2, §3

[21] = target: T1, bovine pancreatic RNase A; assay: ITC, 25 C, RNase A binding with 10 µM nickel present
Method: as §2, §3

[22] = target: T1, bovine pancreatic RNase A; assay: ITC, 25 C, no metal; remark: listed apart in the source
Method: as §4, §5

-TΔS° [1]: 1.9 kcal/mol
Kd [1]: 19 nM
ΔG° [1]: -10.5 kcal/mol
ΔH° [1]: -12.4 kcal/mol
-TΔS° [2]: 0.9 kcal/mol
Kd [2]: 16 nM
ΔG° [2]: -10.6 kcal/mol
ΔH° [2]: -10.7 kcal/mol
B1: wild-type anti-RNase A VHH (cAb-RN05) (VHH)
VHH: QVQLVESGGGLVQAGGSLRLSCAASGYAYTYIYMGWFRQAPGKEREGVAAMDSGGGGTLYADSVKGRFTISRDKGKNTVYLQMDSLKPEDTATYYCAAGGGYELRDRTYGQWGQGTQVTVSS
notes: Camelid single-domain antibody; Made in E. coli with an N-terminal hexa-His-TEV tag for ITC; also called VHH-wt; wt-VHH

Kd [3]: 400 nM
ΔG [3]: -8.73 kcal/mol
ΔH [3]: -9.44 kcal/mol
Kd [4]: 91 nM
-TΔS [5]: 0.7 kcal/mol
Kd [5]: 200 nM
ΔG [5]: -9.07 kcal/mol
ΔH [5]: -4.35 kcal/mol
fold decrease of the observed binding constant on decreasing the pH [6]: ~10000 fold
-TΔS [7]: -3.8 kcal/mol
Kd [7]: 100 nM
ΔG [7]: -9.37 kcal/mol
ΔH [7]: -9 kcal/mol
-TΔS [8]: -8.6 kcal/mol
Kd [8]: 6500 nM
ΔG [8]: -7.07 kcal/mol
ΔH [8]: 1.5 kcal/mol
-TΔS [9]: 25.4 kcal/mol
ΔG [9]: -5.11 kcal/mol
ΔH [9]: -30 kcal/mol
-TΔS [10]: -2.4 kcal/mol
Kd [10]: 12000 nM
ΔG [10]: -7.03 kcal/mol
ΔH [10]: -4.8 kcal/mol
Kd [11]: 6300 nM
ΔG [11]: -7.09 kcal/mol
ΔH [11]: 3 kcal/mol
fold difference of binding affinity from the wild-type value [12]: ≤ 5 fold
-TΔS [13]: 6.8 kcal/mol
Kd [13]: 75000 nM
ΔG [13]: -5.62 kcal/mol
ΔH [13]: -12.4 kcal/mol
-TΔS [14]: -2.5 kcal/mol
Kd [14]: 200 nM
ΔG [14]: -9.31 kcal/mol
ΔH [14]: -6.84 kcal/mol
B2: VHH#24 (pH clone #24) (VHH)
VHH: QVQLVESGGGLVQAGGSLRLSCAASGYHHTYIYMGWFRQAPGKEREGVAAMDSGGGGTLYADSVKGRFTISRDKGKNTVYLQMDSLKPEDTATYYCAAGGGHHLRDHTYGQWGQGTQVTVSS

-TΔS° [15]: 9 kcal/mol
Kd [15]: 157 nM
ΔG° [15]: -9.3 kcal/mol
ΔH° [15]: -17.8 kcal/mol
-TΔS° [2]: 0.09 kcal/mol
Kd [2]: 5640 nM
ΔG° [2]: -7.13 kcal/mol
ΔH° [2]: -7.2 kcal/mol
-TΔS° [16]: 1.3 kcal/mol
Kd [16]: 34000 nM
ΔG° [16]: -6.07 kcal/mol
ΔH° [16]: -7.3 kcal/mol
fold change in IC50 [17]: 1000 fold
-TΔS° [18]: -1 kcal/mol
Kd [18]: 900 nM
ΔG° [18]: -8.27 kcal/mol
ΔH° [18]: -7 kcal/mol
fold decrease in binding affinity against wild type [19]: ~8 fold
ΔΔG° [19]: 1.2 kcal/mol
-TΔS° [20]: 8 kcal/mol
Kd [20]: 160 nM
ΔG° [20]: -9.27 kcal/mol
ΔH° [20]: -17.2 kcal/mol
-TΔS° [21]: 3.6 kcal/mol
Kd [21]: 219 nM
ΔG° [21]: -9.1 kcal/mol
ΔH° [21]: -12.7 kcal/mol
Kd [22]: 155 nM
B3: VHH-metal (metal sensitive anti-RNase A VHH) (VHH)
VHH: QVQLVESGGGLVQAGGSLRLSCAASGYPHPYLHMGWFRQAPGKEREGVAAMDSGGGGTLYADSVKGRFTISRDKGKNTVYLQMDSLKPEDTATYYCAAGGGYQLRDRTYGHWGQGTQVTVSS
notes: also called Metal-VHH; metal clone VHH
